Laboratory results as given in patent publication US20240279318A1 (NANJING LEGEND BIOTECH, published 2024).
Where two headings read alike, the source gives them in different places.

Legend:
[1] = molecular target: T1, AFP158/HLA-A*02:01 complex (human); test: SPR, scFv-mIgG2aFc from supernatant captured, complex as analyte
T1 construct: biotinylated on the BSP by BirA for ELISA and panning; also called biotinylated AFP158/HLA-A*02:01 complex; Bio-AFP158
Procedure: The binding affinity between selected antibodies and AFP158/HLA-A*02:01 complex was determined by surface plasmon resonance (SPR) on a BIAcore T200 instrument (GE Healthcare). The experiment was carried out as follows. The purified sdAb/scFv-mIgG2aFc protein were captured through mIgG2a-Fc onto the sensorchip. […] On-rate (kₐ) and off-rate (kd) were calculated based on association and dissociation curve, and were used to estimate the equilibrium dissociation constant (KD).
Humanized heavy chains and light chains were combined, and used to produce a series of humanized antibodies. These antibodies were synthesized as scFv-mIgG2aFc and transiently produced using HEK293 cells. The antibodies in the supernatant were subjected to SPR affinity assessment.

[2] = molecular target: T1, AFP158/HLA-A*02:01 complex; test: SPR; vs AS170036 VL1VH1
[3] = molecular target: ATG9A peptide/HLA-A*02:01 complex (recombinant) (human); test: SPR
[4] = molecular target: NR2E1 peptide/HLA-A*02:01 complex (recombinant) (human); test: SPR
[5] = molecular target: OR6C1 peptide/HLA-A*02:01 complex (recombinant) (human); test: SPR
[6] = molecular target: OR51B6 peptide/HLA-A*02:01 complex (recombinant) (human); test: SPR
[7] = molecular target: PTP4A1 peptide/HLA-A*02:01 complex (recombinant) (human); test: SPR
[8] = molecular target: OR1I1 peptide/HLA-A*02:01 complex (recombinant) (human); test: SPR
[9] = molecular target: ARNTL peptide/HLA-A*02:01 complex (recombinant) (human); test: SPR
[10] = molecular target: BRCA2 peptide/HLA-A*02:01 complex (recombinant) (human); test: SPR
[11] = molecular target: RP1 peptide/HLA-A*02:01 complex (recombinant) (human, UniProt P16213 21-119 (Pongo pygmaeus entry)); test: SPR
[12] = molecular target: CDC14A peptide/HLA-A*02:01 complex (recombinant) (human); test: SPR
[13] = molecular target: RCL1 peptide/HLA-A*02:01 complex (recombinant) (human, UniProt P16213 21-119 (Pongo pygmaeus entry)); test: SPR
[14] = molecular target: ZNF566 peptide/HLA-A*02:01 complex (recombinant) (human); test: SPR
[15] = molecular target: T1, AFP158/HLA-A*02:01 complex; test: SPR; vs AS170036 VL1VH1; remark: listed apart in the source
[16] = molecular target: T1, AFP158/HLA-A*02:01 complex; test: SPR, crude scFv captured;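 note: Peptide–MHC complex flowed at several concentrations over sensorchip-captured scFv, Kd derived from on- and off-rates obtained from the association and dissociation curves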
Procedure: The experiment was carried out as follows. The crude scFv protein were captured onto the sensorchip. Different concentrations (320, 160, 40 nM) of AFP158/HLA-A*02:01 complex flowed over the sensorchip surface, and were allowed to bind the antibody fragment for 100 s followed by injection of the running buffer to allow dissociation of the complex. On-rate (kd) and off-rate (kd) were calculated based on association and dissociation curve, and were used to estimate the equilibrium dissociation constant (KD).

Kd [1] [nM]	koff [1] [s⁻¹]	kon [1] [M⁻¹ s⁻¹]	Affinity increase [2] [fold]	binding result [3]	binding result [4]	binding result [5]	binding result [6]	binding result [7]	binding result [8]	binding result [9]	binding result [10]	binding result [11]	binding result [12]	binding result [13]	binding result [14]	Affinity increase [15] [fold]	Kd [16] [nM]	Binder
390	0.072	190000	–	–	–	–	–	–	–	–	–	–	–	–	–	–	–	AS170036 VL2VH2 scFv-mIgG2aFc (Fc fusion, not shown: a dimerising Fc or GST) scFv: QSALTQPRSVSGSPGQSVTISCAGTSSDVGSENYVSWYQQHPGKAPKLLIYQVNKRASGIPDRFSGSKSGNTASLTISGLQAEDEADYYCASYRSSDHNIVFGGGTKLTVLGGGGSGGGGSGGGGSEVQLVESGGGLVQPGGSLRLSCTASGFTFSSYAMSWVRQAPGKGLEWVSTINSGTGSPYYADSVKGRFTISRDNSKNTLYLQMNSLRAEDTAMYYCAKNFFDGSWFLGPPAMDYWGQGTLVTVSS
–	–	–	> 2	no binding	no binding	no binding	no binding	no binding	no binding	no binding	no binding	no binding	no binding	no binding	no binding	–	–	AS170036 VL1VH1-VLH98V (scFv) scFv: QSALTQPRSVSGSPGQSVTISCAGTSSDVGSENYVSWYQQHPGKAPKLMIYQVNKRASGVPDRFSGSKSGNTASLTISGLQAEDEADYYCASYRSSDVNIVFGGGTKLTVLGGGGSGGGGSGGGGSEVQLVESGGGLVQPGGSLRLSCAASGFTFSSYAMSWVRQAPGKGLEWVSTINSGTGSPYYADSVKGRFTISRDNSKNTLYLQMNSLRAEDTAVYYCAKNFFDGSWFLGPPAMDYWGQGTLVTVSSHHHHHH
–	–	–	> 2	no binding	no binding	no binding	no binding	no binding	no binding	no binding	no binding	no binding	no binding	no binding	no binding	–	–	AS170036 VL1VH1-VLH98A (scFv) scFv: QSALTQPRSVSGSPGQSVTISCAGTSSDVGSENYVSWYQQHPGKAPKLMIYQVNKRASGVPDRFSGSKSGNTASLTISGLQAEDEADYYCASYRSSDANIVFGGGTKLTVLGGGGSGGGGSGGGGSEVQLVESGGGLVQPGGSLRLSCAASGFTFSSYAMSWVRQAPGKGLEWVSTINSGTGSPYYADSVKGRFTISRDNSKNTLYLQMNSLRAEDTAVYYCAKNFFDGSWFLGPPAMDYWGQGTLVTVSSHHHHHH
–	–	–	> 2	no binding	no binding	no binding	no binding	no binding	no binding	no binding	no binding	no binding	no binding	no binding	no binding	–	–	AS170036 VL1VH1-VLE32W (scFv) scFv: QSALTQPRSVSGSPGQSVTISCAGTSSDVGSWNYVSWYQQHPGKAPKLMIYQVNKRASGVPDRFSGSKSGNTASLTISGLQAEDEADYYCASYRSSDHNIVFGGGTKLTVLGGGGSGGGGSGGGGSEVQLVESGGGLVQPGGSLRLSCAASGFTFSSYAMSWVRQAPGKGLEWVSTINSGTGSPYYADSVKGRFTISRDNSKNTLYLQMNSLRAEDTAVYYCAKNFFDGSWFLGPPAMDYWGQGTLVTVSSHHHHHH
–	–	–	> 2	no binding	no binding	no binding	no binding	no binding	no binding	no binding	no binding	no binding	no binding	no binding	no binding	2.3	98	AS170036 VL1VH1-VHG56F (scFv) scFv: QSALTQPRSVSGSPGQSVTISCAGTSSDVGSENYVSWYQQHPGKAPKLMIYQVNKRASGVPDRFSGSKSGNTASLTISGLQAEDEADYYCASYRSSDHNIVFGGGTKLTVLGGGGSGGGGSGGGGSEVQLVESGGGLVQPGGSLRLSCAASGFTFSSYAMSWVRQAPGKGLEWVSTINSGTFSPYYADSVKGRFTISRDNSKNTLYLQMNSLRAEDTAVYYCAKNFFDGSWFLGPPAMDYWGQGTLVTVSSHHHHHH
–	–	–	> 2	no binding	no binding	no binding	no binding	no binding	no binding	no binding	no binding	no binding	no binding	no binding	no binding	4.7	58	AS170036 VL1VH1-VHG108M (scFv) scFv: QSALTQPRSVSGSPGQSVTISCAGTSSDVGSENYVSWYQQHPGKAPKLMIYQVNKRASGVPDRFSGSKSGNTASLTISGLQAEDEADYYCASYRSSDHNIVFGGGTKLTVLGGGGSGGGGSGGGGSEVQLVESGGGLVQPGGSLRLSCAASGFTFSSYAMSWVRQAPGKGLEWVSTINSGTGSPYYADSVKGRFTISRDNSKNTLYLQMNSLRAEDTAVYYCAKNFFDGSWFLMPPAMDYWGQGTLVTVSSHHHHHH
–	–	–	> 2	no binding	no binding	no binding	no binding	no binding	no binding	no binding	no binding	no binding	no binding	no binding	no binding	–	–	AS170036 VL1VH1-VLH98T (scFv) scFv: QSALTQPRSVSGSPGQSVTISCAGTSSDVGSENYVSWYQQHPGKAPKLMIYQVNKRASGVPDRFSGSKSGNTASLTISGLQAEDEADYYCASYRSSDTNIVFGGGTKLTVLGGGGSGGGGSGGGGSEVQLVESGGGLVQPGGSLRLSCAASGFTFSSYAMSWVRQAPGKGLEWVSTINSGTGSPYYADSVKGRFTISRDNSKNTLYLQMNSLRAEDTAVYYCAKNFFDGSWFLGPPAMDYWGQGTLVTVSSHHHHHH
–	–	–	> 2	no binding	no binding	no binding	no binding	no binding	no binding	no binding	no binding	no binding	no binding	no binding	no binding	4.1	56	AS170036 VL1VH1-VHG108E (scFv) scFv: QSALTQPRSVSGSPGQSVTISCAGTSSDVGSENYVSWYQQHPGKAPKLMIYQVNKRASGVPDRFSGSKSGNTASLTISGLQAEDEADYYCASYRSSDHNIVFGGGTKLTVLGGGGSGGGGSGGGGSEVQLVESGGGLVQPGGSLRLSCAASGFTFSSYAMSWVRQAPGKGLEWVSTINSGTGSPYYADSVKGRFTISRDNSKNTLYLQMNSLRAEDTAVYYCAKNFFDGSWFLEPPAMDYWGQGTLVTVSSHHHHHH
–	–	–	> 2	no binding	no binding	no binding	no binding	no binding	no binding	no binding	no binding	no binding	no binding	no binding	no binding	–	–	AS170036 VL1VH1-VLH98P (scFv) scFv: QSALTQPRSVSGSPGQSVTISCAGTSSDVGSENYVSWYQQHPGKAPKLMIYQVNKRASGVPDRFSGSKSGNTASLTISGLQAEDEADYYCASYRSSDPNIVFGGGTKLTVLGGGGSGGGGSGGGGSEVQLVESGGGLVQPGGSLRLSCAASGFTFSSYAMSWVRQAPGKGLEWVSTINSGTGSPYYADSVKGRFTISRDNSKNTLYLQMNSLRAEDTAVYYCAKNFFDGSWFLGPPAMDYWGQGTLVTVSSHHHHHH
